Measurements reported in PMC3461361.

Biological target: Invasion plasmid antigen B (IpaB) (S. flexneri)
Test: native gel or EMSA

Invasion plasmid antigen B (IpaB) (natural protein)
stoichiometry N: > 10
